Data from the supplement of paper PMC10065799, “High-throughput profiling of sequence recognition by tyrosine kinases and SH2 domains using bacterial peptide display” (eLife, 2023).

biological target: EPHB1 (UniProt P54762); assay: phosphorylation enrichment, bacterial display (enrichment ratio); higher = better substrate or ligand; peptides without Tyr show the background
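Note: 11-residue human phosphosite peptides and single-mutation variants displayed on the E. coli surface, counted by deep sequencing, each peptide's frequency after selection divided by its frequency in the unselected input library; frequency after pTyr selection over input frequency; kinase dosed for 20-30% of maximal phosphorylation in three min.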

EPHB1, sequence (P54762 whole entry, looked up): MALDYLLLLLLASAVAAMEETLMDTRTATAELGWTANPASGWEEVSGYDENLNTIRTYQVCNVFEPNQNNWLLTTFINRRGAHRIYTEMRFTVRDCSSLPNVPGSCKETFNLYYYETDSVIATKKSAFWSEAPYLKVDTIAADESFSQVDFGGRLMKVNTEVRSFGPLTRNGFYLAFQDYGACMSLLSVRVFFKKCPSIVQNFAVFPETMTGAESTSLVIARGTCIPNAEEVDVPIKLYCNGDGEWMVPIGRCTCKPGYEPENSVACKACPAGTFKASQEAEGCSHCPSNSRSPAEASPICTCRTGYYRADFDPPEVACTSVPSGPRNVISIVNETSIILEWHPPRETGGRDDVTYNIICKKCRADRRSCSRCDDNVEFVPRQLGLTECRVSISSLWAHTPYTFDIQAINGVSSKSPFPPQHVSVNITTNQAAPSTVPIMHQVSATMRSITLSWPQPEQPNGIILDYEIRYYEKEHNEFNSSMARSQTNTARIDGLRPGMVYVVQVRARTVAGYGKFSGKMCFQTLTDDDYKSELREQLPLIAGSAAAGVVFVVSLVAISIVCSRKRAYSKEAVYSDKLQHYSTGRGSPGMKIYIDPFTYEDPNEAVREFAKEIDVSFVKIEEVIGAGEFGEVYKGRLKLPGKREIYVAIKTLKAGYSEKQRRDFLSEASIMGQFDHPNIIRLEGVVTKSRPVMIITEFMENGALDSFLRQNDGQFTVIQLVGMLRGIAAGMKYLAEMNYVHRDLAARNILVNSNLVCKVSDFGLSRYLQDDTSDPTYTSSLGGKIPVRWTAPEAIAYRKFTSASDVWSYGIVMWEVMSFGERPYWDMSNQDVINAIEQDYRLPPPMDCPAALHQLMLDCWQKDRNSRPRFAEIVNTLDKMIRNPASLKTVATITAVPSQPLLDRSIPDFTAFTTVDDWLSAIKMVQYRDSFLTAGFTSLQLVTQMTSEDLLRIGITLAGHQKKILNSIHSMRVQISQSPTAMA

Row | Sequence | phosphorylation enrichment
1 | ARRHPYFFAPE [ALB_Y172_Y174F] | 0.546
2 | SVVVPYESPEV [TP53_Y220_P222S] | 0.57
3 | RRIHSYRGHLW [VHL_Y112] | 2.21
4 | WFPANYVKLLS [ITSN1_Y1132] | 4.12
5 | DLVLQYLRVPL [F9_Y371_A366D] | 0.489
6 | DNEALYDICFC [TUBB3_Y208_R213C] | 4.22
7 | GLVFLYMEKNQ [PRELP_Y156] | 0.607
8 | ERRLIYASDPK [VPS13D_Y864_T865A] | 0.443
9 | PPAPRCHHSAV [LZTR1_Y119_Y119C] | 1.17
10 | NDDDVYLSLEE [VAV2_Y142_R143L] | 0.793
11 | NTGDDYDLYGG [PTPN11_Y63_Y62D] | 0.581
12 | SLESAYPEGSQ [TTF1_Y357] | 0.463
13 | ESLRPYDVMDV [KCNQ2_Y562] | 0.583
14 | FKDYFYCWNTF [AICDA_Y146] | 4.05
15 | DKANRYFSPNF [PTEN_Y336] | 0.296
16 | KDQGIYEDYVE [MYL6_Y86_T85I] | 0.74
17 | EKESCYILHSS [PATJ_Y783_E779K] | 0.531

Row | Sequence | phosphorylation enrichment
18 | EILDVYIFLGP [GAA_Y340_G335E] | 0.912
19 | DLITAYRAHGF [PDHA1_Y118_H113D] | 0.409
20 | LNPLIYTLRNA [OR4C46_Y285_K288R] | 0.576
21 | MEVGQYFFVKC [CYBB_Y324_I325F] | 0.861
22 | KKRSVYIKVLF [CC2D2A_Y683_L684I] | 0.411
23 | KYLENYLNCLL [PLD2_Y169_R172C] | 1.18
24 | YRAVKYLQMVG [AVPR2_Y117_C112Y] | 0.582
25 | AAGGRYDGLVG [HARS1_Y363] | 0.357
26 | RQIQSYTCEID [DES_Y331_H326R] | 0.522
27 | LLKKVYLMLDN [STAT1_Y203_M202V] | 0.93
28 | RREWYYEVIIV [BACE1_Y260] | 0.516
29 | LEDEVYAQKMK [TPM2_Y261] | 2.92
30 | NTGVYYDLYGG [PTPN11_Y63_D61V] | 6.16
31 | HRLSTYTKMLF [CHST8_Y251] | 0.723
32 | PSAVAYPKRSQ [MARK3_Y432_V429A] | 0.544
33 | SVVVPYEPPDV [TP53_Y220_E224D] | 0.554

biological target: Fes (UniProt P07332); assay: as above
Sequence (P07332 whole entry, looked up): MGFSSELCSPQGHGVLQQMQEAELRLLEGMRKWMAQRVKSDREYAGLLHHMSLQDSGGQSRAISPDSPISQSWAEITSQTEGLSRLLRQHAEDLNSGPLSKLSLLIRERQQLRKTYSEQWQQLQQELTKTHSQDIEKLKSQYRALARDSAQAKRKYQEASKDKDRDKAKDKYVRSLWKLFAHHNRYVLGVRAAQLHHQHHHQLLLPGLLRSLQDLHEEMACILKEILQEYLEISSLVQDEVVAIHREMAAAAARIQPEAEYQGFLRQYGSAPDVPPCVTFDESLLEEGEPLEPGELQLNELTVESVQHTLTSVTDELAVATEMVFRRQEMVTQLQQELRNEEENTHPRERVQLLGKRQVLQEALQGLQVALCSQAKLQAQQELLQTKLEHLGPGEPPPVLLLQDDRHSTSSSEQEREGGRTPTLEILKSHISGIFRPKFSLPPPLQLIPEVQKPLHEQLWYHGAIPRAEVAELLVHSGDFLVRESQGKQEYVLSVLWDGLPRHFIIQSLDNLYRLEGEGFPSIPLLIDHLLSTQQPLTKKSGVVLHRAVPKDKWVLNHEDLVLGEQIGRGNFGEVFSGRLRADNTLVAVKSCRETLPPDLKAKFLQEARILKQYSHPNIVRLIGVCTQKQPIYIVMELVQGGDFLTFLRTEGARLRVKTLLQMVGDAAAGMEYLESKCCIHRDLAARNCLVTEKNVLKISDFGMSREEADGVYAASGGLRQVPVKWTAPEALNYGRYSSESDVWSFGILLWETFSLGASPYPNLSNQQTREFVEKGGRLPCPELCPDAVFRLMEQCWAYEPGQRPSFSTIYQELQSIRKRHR

Row | Sequence | phosphorylation enrichment
34 | ARRHPYFFAPE [ALB_Y172_Y174F] | 0.746
35 | SVVVPYESPEV [TP53_Y220_P222S] | 1.13
36 | RRIHSYRGHLW [VHL_Y112] | 2.9
37 | WFPANYVKLLS [ITSN1_Y1132] | 0.841
38 | DLVLQYLRVPL [F9_Y371_A366D] | 1.13
39 | DNEALYDICFC [TUBB3_Y208_R213C] | 1.73
40 | GLVFLYMEKNQ [PRELP_Y156] | 1.18
41 | ERRLIYASDPK [VPS13D_Y864_T865A] | 0.678
42 | PPAPRCHHSAV [LZTR1_Y119_Y119C] | 2.01
43 | NDDDVYLSLEE [VAV2_Y142_R143L] | 1.48
44 | NTGDDYDLYGG [PTPN11_Y63_Y62D] | 1.17
45 | SLESAYPEGSQ [TTF1_Y357] | 0.968
46 | ESLRPYDVMDV [KCNQ2_Y562] | 1.14
47 | FKDYFYCWNTF [AICDA_Y146] | 1.34
48 | DKANRYFSPNF [PTEN_Y336] | 0.521
49 | KDQGIYEDYVE [MYL6_Y86_T85I] | 1.08
50 | EKESCYILHSS [PATJ_Y783_E779K] | 1.09

Row | Sequence | phosphorylation enrichment
51 | EILDVYIFLGP [GAA_Y340_G335E] | 1.27
52 | DLITAYRAHGF [PDHA1_Y118_H113D] | 0.756
53 | LNPLIYTLRNA [OR4C46_Y285_K288R] | 1.12
54 | MEVGQYFFVKC [CYBB_Y324_I325F] | 1.69
55 | KKRSVYIKVLF [CC2D2A_Y683_L684I] | 0.954
56 | KYLENYLNCLL [PLD2_Y169_R172C] | 1.47
57 | YRAVKYLQMVG [AVPR2_Y117_C112Y] | 0.827
58 | AAGGRYDGLVG [HARS1_Y363] | 0.615
59 | RQIQSYTCEID [DES_Y331_H326R] | 1.08
60 | LLKKVYLMLDN [STAT1_Y203_M202V] | 2.19
61 | RREWYYEVIIV [BACE1_Y260] | 0.751
62 | LEDEVYAQKMK [TPM2_Y261] | 2.74
63 | NTGVYYDLYGG [PTPN11_Y63_D61V] | 1.18
64 | HRLSTYTKMLF [CHST8_Y251] | 1.52
65 | PSAVAYPKRSQ [MARK3_Y432_V429A] | 0.818
66 | SVVVPYEPPDV [TP53_Y220_E224D] | 0.932
